Measured values from US20100247589A1.
Where no end group is shown, it is not given here. The star is where a group is joined. Biotin = O=C1N[C@H]2[C@H](CS[C@H]2CCCCC(=O)*)N1

Tests used:
[1] = biological target: tooth pellicle (thin film derived from salivary glycoproteins, formed in a human mouth) (human); assay: phage ELISA on 30 min pellicle-coated bovine enamel, anti-M13-HRP, normalized to DenP3; no-phage control 0.094
[2] = biological target: tooth pellicle (thin film derived from salivary glycoproteins, formed in a human mouth) (human); assay: phage ELISA on pellicle-coated bovine enamel, anti-M13-HRP, normalized to internal control
[3] = biological target: tooth pellicle (thin film derived from salivary glycoproteins, formed in a human mouth) (human); assay: ELISA titration of biotinylated peptide on pellicle-coated bovine enamel, streptavidin-alkaline phosphatase, 4-MUP fluorescence, Scatchard plot
[4] = biological target: tooth pellicle (thin film derived from salivary glycoproteins, formed in a human mouth) (human); assay: ELISA, 20 uM biotinylated peptide on pellicle-coated bovine enamel, streptavidin-HRP, normalized to DenP03; no-peptide control -0.001

Binder	O.D.450 (normalized) [1]	further results
THGNKHQSWTYPSEINHKNY [DenP108]	1.15	–
NQQMKLVPQHWHRAQP [DenP119]	1.05	–
NLHSPWPSHAAHHWST [DenP118]	0.641	–
GYGQYVSQQTWAHSNK [DenP115]	0.501	–
DGYKLQTSLDWQMWNP [DenP111]	1.05	–
GINKGQRPPWESWHEN [DenP114]	0.703	–
MPGHQESIKVQNWNRV [DenP117]	0.433	–
TTYHYKNIYQESYQQRNPAV [DenP3]	1	O.D.450 (normalized) [2]: 2.5
SSRPHKNENIMQYNVNDRWHITPAK(Biotin) [DenP32-A]	–	MB50 [3]: 25 µM; O.D.450 (normalized) [4]: 1.14
FPSKWYNHHRHITGHV [DenP112]	0.413	–
SSRPTTYHYKNIYQESYQQRNPAVK(Biotin) [DenP3-A]	–	MB50 [3]: 28 µM; O.D.450 (normalized) [4]: 1
WHEPHQFSGENTDYSSSMGT [DenP109]	0.716	–
HDHLSWWGQFDRQNLL [DenP116]	1.05	–
GGMGALESYRQWNHLA [DenP113]	1.35	–
